± gives the uncertainty stated by the source.
Assay: amyloid nucleation score (Sup35N fusion, yeast selection) (log enrichment); library NNK3; higher = more nucleation; inactive = no reads after selection
Outline: (§1)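 Three technical output replicates were used for random libraries. Psi-negative yeast expressing peptides of 20 random codons fused to Sup35N were induced with 100 μM copper sulfate for 24 hours and grown 7 days at 30°C on medium lacking adenine and uracil, and input and output plasmid inserts were Illumina-sequenced, excluding sequences with under 100 input reads. The nucleation score is the DiMSum log enrichment of output over input reads, centred on the mode score of non-aggregating sequences.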

Substance | amyloid nucleation score
LMYMS | inactive

Assay: amyloid nucleation score (Sup35N fusion, yeast selection) (log enrichment); library NNK1; higher = more nucleation; inactive = no reads after selection
Outline: as §1

Substance | amyloid nucleation score
LMYMS | -0.11 ± 0.67
DNTIYDSMCFDAGNPDLCIH | 0.439 ± 0.23
GIDVCWSFFILYVWERVIRG | 0.337 ± 0.36
RKLKSCSTNGHIG | 6.02 ± 0.063
LDGTLVLTYL | 0.134 ± 0.42
IVNAKLSWSYPGIIRLCHCE | 0.43 ± 0.28
FSNIWMSTMVPSRVRKARCV | 0.05 ± 0.75
ISGAN | -0.06 ± 0.44
GVESLLCYASPLVSWAIFAD | -0.424 ± 0.28
RFQVPLCIPLINC | 0.886 ± 0.74
SYGMSYSVVWNWCECNSA | 5.23 ± 0.053
TAGRVITSCWQVLILLVNCG | -0.605 ± 0.54
SWIRNRWHYTQ | -0.141 ± 0.72
GLYFGLQLTGVS | 0.04 ± 0.35
QSSLGNLTCANFWVTTTEVG | inactive
WLLVNMDDYLAGYCITHFRN | -0.359 ± 0.58
GFYFSYSWVRRSRNSKSMAS | 0.418 ± 1
RWSWTVIMSMEADGCFRLHL | 1.68 ± 0.28
STYYVVRDFFLDSSTGTVYS | -0.031 ± 0.61
KGYSSTYGRPSKHYCC | inactive
NLYPDLGVLVGCHSDKWSNL | -0.115 ± 1.3
CQEKRSFPVNMNRDIPCLSS | 0.193 ± 1.5

Substance | amyloid nucleation score
LVVYRSKQRSYCCM | -0.359 ± 1.9
VRNVG | -0.14 ± 0.59
TGWNGNLGSVVAE | -0.375 ± 0.5
GICELQRPTYVTLVEVFMVD | -0.49 ± 0.41
RQRTIFWLMFWELAMFNCHM | -0.423 ± 0.74
SYTSRPYFTNIYVDYWFMVC | 6.216 ± 0.05
NVGVRLMCVSWSVHDQLA | 1.66 ± 0.35
CLIESIWKLVVSNGSKYISY | -0.181 ± 0.18
SDMDNTWLA | -0.797 ± 0.66
NVISRSLVMYMYKEERPASA | 0.031 ± 0.27
LVVFLNC | -0.607 ± 0.39
WGRMV | 0.248 ± 0.74
SVIVLFTIRRSWRPHSFRES | 0.94 ± 0.32
YVCFVQSCFYARQGHMSGEA | 0.165 ± 0.31
HGALMNNWDLKACFC | -0.786 ± 0.41
KGDNIPLGAPSREMLTVYRA | -0.146 ± 0.5
YINLDHCRMSSSTA | 0.85 ± 0.65
YGGLGYSLIGCYADLDGVIL | 1.47 ± 0.39
AQFSTKPQQRIP | 1.51 ± 0.56
HVDDIWWTTFMYFPRCHLHV | 0.858 ± 0.57
TYDVMTLGENVKGLCISARC | -0.412 ± 0.42
SSIAAIVM | 0.723 ± 0.41

Substance | amyloid nucleation score
YMISNMVKVVFSSTDRNVGN | 5.935 ± 0.051
FDNLWRQYYVIGWILARAFS | -0.983 ± 0.9
NNYVYLSLSFPVGTVC | -0.377 ± 0.61
YYRKHFRLYIIIWDLFKI | 0.282 ± 0.97
TILVNKRR | -1.28 ± 0.65
VRGSVRCNVDYLICVYVHR | 1.46 ± 0.51
STCNYLDSGGRDRCSFFNCD | 0.078 ± 0.47
PQQEGISLSDALPLPEEGRV | 0.535 ± 0.4
PETIW | 1.49 ± 0.5
EVILFNGLRMRAVPETWAST | 0.587 ± 0.4
MFSVFNRKRN | -0.354 ± 0.26
YMPRSQIGSTSHVNWREMAE | -0.311 ± 0.33
NDTFSYCSTSGDRFGT | 1.4 ± 0.24
TRTGSRHPWRCLSDIASCNG | 0.466 ± 0.32
LSGERNVMCSVWACLGRDYR | 8.102 ± 0.047
EVCVLRTLNRKNFDEPDNCI | 0.913 ± 0.56
VEGALGYGCASC | 0.768 ± 0.65
VTRYVPECGWKDLDLASWYL | 1.34 ± 0.58
CMPCSDFGSLWVAMDMNCFR | 4.1 ± 0.085
MKQALMGVVMIHWGGRSRV | 0.687 ± 0.54
LARYMIYWGLMSAGRHRRHY | -0.46 ± 0.43
GFRFW | 2.96 ± 0.11

Substance | amyloid nucleation score
TIVLLNCISIRLSIRFMFIP | -0.251 ± 1
PMNYGSSNA | -0.224 ± 1.7
SILIRLIISTINCCVNNVAF | 5.43 ± 0.083
HCLSNCSSRVGGFSFNAPVA | 0.5 ± 0.45
KEDAIIWVYNKSVSMRIFVQ | -0.104 ± 0.46
TIRNMMMYYGSSKVSYRMNS | 0.587 ± 0.22
TSSCFMESRLK | 0.179 ± 0.59
DDQKIRRY | 0.602 ± 0.34
VWGDRWTTVSGRSAEYRTKS | 1.34 ± 0.15
FTLGVFSL | 0.017 ± 0.22
PMNNIVFYGGYLISAFRVRL | 6.46 ± 0.089
LMEFHLYQMYSLRLVARRWW | 1.32 ± 0.38
SVWCGSWVYNTLRLNMGTNL | 3.01 ± 0.15
KNAYHFRG | 0.113 ± 0.97
VEQSFTAAPFQDVLF | -0.38 ± 0.32
FYIFCDDFTGCS | 1.84 ± 0.11
HHRVCSMKWSNCYELNVMGE | -0.429 ± 0.28
GYKRFYLLVKLYVFERINIA | -0.244 ± 0.31
HWVGFLRYTSIKDDHQFGSK | -0.323 ± 0.51
NQIFVQCSVGKAWDRSKSVD | 4.12 ± 0.081
GRARVSIRSWSRSWSVGRVL | 0.309 ± 0.63
LQSAVRWWHFDSRLGEAKLM | 0.902 ± 0.69

Substance | amyloid nucleation score
CGIVFCSSFMDIFGPFDQTH | 8.373 ± 0.056
TVRSYRSGRCYNFIVNRERA | -0.177 ± 0.75
IVVLLKNRS | 0.488 ± 0.47
SYMLVRDTLVLRCSACLLAG | inactive
PVKVWARTVQSVAWLFSCG | -0.016 ± 1.4
RSDISASHRSVGLLNSHRTD | -0.58 ± 1.5
NLDYDVESRVTEVWGVLSGC | 1.92 ± 0.56
DGFKAALICAIANY | 0.397 ± 0.3
TLFLKDLSLLAFEFPLNISA | -0.507 ± 0.37
ISDEIGIAIENKDSLRKGFR | 0.002 ± 0.84
GYRCMHLWTRSPSFIRPVVS | 0.67 ± 0.97
MENISLINGLETMYPIDRLT | -2.15 ± 2.4
GGIRRHTHGI | -0.746 ± 1.4
KGKTVVSEDGEQCHLGCSRT | -0.079 ± 0.33
TSGSCSACCLWVRGDNETFM | 7.881 ± 0.048
YAVCRLANSSGSRHVFLCHT | 0.527 ± 0.31
FYFRPNDQSWYVTRLFLSPA | 0.491 ± 0.93
DSSSYICSLSSPYSWSISFF | 7.366 ± 0.07
YDFLPRVNNPLSRNLRHRAL | -0.071 ± 0.56
FWVGP | -0.217 ± 0.51
